“And” between values parts separate entries of the source, which are not always exact repeats. Equal values may be shown once. Where no end group is shown, it is not given here. The star is where a group is joined. Biotin = O=C1N[C@H]2[C@H](CS[C@H]2CCCCC(=O)*)N1
T1: recombinant phage displaying CASK PDZ domain (PDZ domain of human hCASK, hCASK-PDZopt in pCANTAB5E) (human, UniProt O14936 480-577)
T1 construct: also called wildtype hCASK-PDZ
T1 sequence: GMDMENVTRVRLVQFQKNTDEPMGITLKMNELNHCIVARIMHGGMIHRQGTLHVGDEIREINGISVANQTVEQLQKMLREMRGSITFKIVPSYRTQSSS

B1: biotin-QKAPTKEFYA peptide (peptide)
peptide: Biotin-QKAPTKEFYA
notes: also called cognate peptide ligand of hCASK PDZ; C-terminus of syndecan-2

Legend:
biotin-… peptide = assay: phage ELISA, biotinylated peptide on streptavidin-coated wells, anti-M13 HRP and ABTS, 35 min at room temperature
[1] = target: T1, recombinant phage displaying CASK PDZ …; assay: phage ELISA

Row | Molecule | OD405 (biotin-… peptide) | binding result [1]
1 | phage-displayed third PDZ domain of human Dlg1 (in pCANTAB5E) | 0.51 OD405 and 0.46 OD405 | –
2 | B1 | – | binds

Source: patent US20070218001A1 (BIOTECH STUDIO, published 2007)
